Laboratory results: patent US20030032582A1

Columns and labels:
Assay in all cases: cell-based or functional assay
[1] = target: TCR Vβ5 (human)
[2] = target: TCR Vβ8 (human)
[3] = target: TCR Vβ2 (human)

Substance: H-TSST1 (ligand)
- CD3^+ Blasts Binding Anti-Vβ (%) [1]: 4.5%
- CD3^+ Blasts Binding Anti-Vβ, fold difference versus unstimulated controls [1]: 2 fold
- CD3^+ Lymphocytes Binding Anti-Vβ (%) [1]: 2%
- CD3^+ Lymphocytes Binding Anti-Vβ, fold difference versus unstimulated controls [1]: 0.9 fold
- CD3^+ Blasts Binding Anti-Vβ (%) [2]: 4.6%
- CD3^+ Blasts Binding Anti-Vβ, fold difference versus unstimulated controls [2]: 1.1 fold
- CD3^+ Lymphocytes Binding Anti-Vβ (%) [2]: 4.1%
- CD3^+ Lymphocytes Binding Anti-Vβ, fold difference versus unstimulated controls [2]: 1 fold
- CD3^+ Blasts Binding Anti-Vβ (%) [3]: 33%
- CD3^+ Blasts Binding Anti-Vβ, fold difference versus unstimulated controls [3]: 3.4 fold
- CD3^+ Lymphocytes Binding Anti-Vβ (%) [3]: 5.1%
- CD3^+ Lymphocytes Binding Anti-Vβ, fold difference versus unstimulated controls [3]: 0.5 fold
